Like-named read-outs stand apart in the source and are kept apart here.
What was measured:
Raf-1 = assay: Kinase activity of immunoprecipitated Raf-1 toward MEK1 after HL-60 cell stimulation; type: cell-based, human (HL-60 cells)
Procedure: Recovery of MEK1 was monitored by western blot (Bottom Panel). Identical results were obtained with cells stimulated for 5 min with TNF.
Recovery of MEK1 was monitored by western blot (Bottom Panel).
These studies indicate that Raf-1 is a component of the sphingomyelin pathway mediating TNF action.
MEK1 autophosphorylation was for 45 min. An autoradiogram of MEK1 phosphorylation (top panel) and recovery of MEK1 protein by western blot (bottom panel) are shown. For western blot, proteins separated by SDS-PAGE were electrotransferred to an Immobilon PVDF membrane at 12 volts overnight at 4° C. Membranes were then blocked with 2% BSA in TBS [20 mM Tris, pH 7.6, 137 mM NaCl] for 1 hr and washed with TBST (TBS containing 0.2% Tween-20).

KSR = molecular target: T1, KSR (Mus musculus, UniProt Q61097); assay: KSR activity toward Raf-1 peptides in vitro; type: biochemical, mouse (KSR immunoprecipitated from COS-7 cells); parameters: Raf-1 peptides as substrate
T1 sequence (Q61097 1-873): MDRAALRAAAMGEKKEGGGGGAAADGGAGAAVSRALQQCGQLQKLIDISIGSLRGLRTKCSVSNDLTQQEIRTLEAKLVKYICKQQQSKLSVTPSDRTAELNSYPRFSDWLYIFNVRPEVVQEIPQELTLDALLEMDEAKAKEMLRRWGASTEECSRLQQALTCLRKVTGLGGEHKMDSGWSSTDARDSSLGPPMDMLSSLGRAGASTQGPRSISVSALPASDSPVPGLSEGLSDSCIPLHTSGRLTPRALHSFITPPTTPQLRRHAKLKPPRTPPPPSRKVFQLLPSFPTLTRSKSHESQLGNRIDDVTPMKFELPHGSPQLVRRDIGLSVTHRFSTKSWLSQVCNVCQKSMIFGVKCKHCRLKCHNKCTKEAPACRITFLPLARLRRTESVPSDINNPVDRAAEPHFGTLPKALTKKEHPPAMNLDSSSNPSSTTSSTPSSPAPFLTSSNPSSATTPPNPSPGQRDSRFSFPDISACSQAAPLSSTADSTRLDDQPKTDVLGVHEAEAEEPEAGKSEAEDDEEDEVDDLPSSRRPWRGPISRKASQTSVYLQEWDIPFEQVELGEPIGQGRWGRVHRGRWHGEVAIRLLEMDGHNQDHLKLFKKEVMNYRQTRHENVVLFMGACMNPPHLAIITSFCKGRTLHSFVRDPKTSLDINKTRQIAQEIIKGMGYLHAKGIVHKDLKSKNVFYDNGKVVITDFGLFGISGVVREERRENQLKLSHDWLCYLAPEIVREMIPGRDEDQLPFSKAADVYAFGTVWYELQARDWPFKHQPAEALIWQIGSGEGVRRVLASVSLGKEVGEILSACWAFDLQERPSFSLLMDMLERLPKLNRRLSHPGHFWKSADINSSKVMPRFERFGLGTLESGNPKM
Method in brief: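 Flag-tagged KSR immunoprecipitated from COS-7 lysate, incubated with 0.3 mM Raf-1 TTLP peptide, 10 mM MnCl2, 5 μM ATP plus [γ-32P]ATP at 22 °C, with 30 nM ceramide or other lipids; P81 filter binding and Cerenkov counting, AALP-peptide background subtracted.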

[1] = test system: ceramide-activated protein kinase; settings: for membrane-bound kinase activity, fold increase: TNF-α 30 nM

CCCCCCCCCCCCCC(=O)O[C@@H]1[C@@H](C)[C@@]2(O)[C@@H](C=C(CO)C[C@]3(O)C(=O)C(C)=C[C@@H]23)[C@@H]2C(C)(C)[C@]12OC(C)=O [TPA, 12-0-tetradecanoylphorbol-13-acetate]
increase of Raf-1 activity (Raf-1; TPA 100 ng/ml, 10 min, maximum): 4 fold of control | effect on activation of KSR towards Raf-peptide (KSR; 30 nM): no effect

CCCCCCCCCCCCC/C=C/[C@@H](O)[C@@H](N)CO [sphingosine]
effect on kinase activity in membranes of stimulated HL-60 cells ([1]; cholera toxin 10 nM, retinoic acid 0.5 μM, butyrate 0.5 mM): similarly as effective as C8-cer | activation of KSR (KSR): fail to activate KSR

TNF-α
kinase activity of Raf-1 toward MEK1 (Raf-1; HL-60 cells treated with TNF or ceramide analogs): 10-20 fold | kinase activity, fold of control ([1]; 3 pM TNF-α, 60 minutes): 1.1 fold of control | maximal kinase activity, fold of control ([1]; 30 nM TNF-α, 60 minutes): 1.8 fold of control | ED50 for kinase activity ([1]; 60 minutes of stimulation): ≈ 200 pM | membrane-bound kinase activity, fold increase ([1]; 5 minutes): 1.5 fold | membrane-bound kinase activity, fold increase ([1]; 2 hours): 2.2 fold | membrane-bound kinase activity, fold increase ([1]; 2 hours, listed as TNF): 2 fold
